Laboratory results published in patent publication US20160289280A1, “Fusion protein of recombinant ganoderma immunoregulatory protein and human serum albumin, preparation method thereof, and application thereof” (priority 2013, published 2016).
Marks after values point to notes of the source that are not given here.

B1: rLZ-8: recombinant ganoderma immunoregulatory protein which is not fused, comparator (protein, UniProt P14945 2-111, looked up)
Immunomodulatory protein Ling …: SDTALIFRLAWDVKKLSFDYTPNWGRGNPNNFIDTVTFPKVLTDKAYTYRVAVSGRNLGVKPSYAVESDGSQKVNFLEYNSGYGIADTNTIQVFVVDPDTNNDFIIAQWN
B2: rLZ-8-HSA: fusion protein of ganoderma immunoregulatory protein (LZ-8) and human serum albumin, linker GGGGSS, SEQ ID NO. 1 (protein)
chain: SDTALIFRLAWDVKKLSFDYTPNWGRGNPNNFIDTVTFPKVLTDKAYTYRVAVSGRNLGVKPSYAVESDGSGKVNFLEYNSGYGIADTNTIGVFVVDPDTNNDFIIAGWNGGGGSSMKWVTFISLLFLFSSAYSRGVFRRDAHKSEVAHRFKDLGEENFKALVLIAFAGYLGGCPFEDHVKLVNEVTEFAKTCVADESAENCDKSLHTLFGDKLCTVATLRETYGEMADCCAKGEPERNECFLGHKDDNPNLPRLVRPEVDVMCTAFHDNEETFLKKYLYEIARRHPYFYAPELLFFAKRYKAAFTECCGAADKAACLLPKLDELRDEGKASSAKGRLKCASLGKFGERAFKAWAVARLSGRFPKAEFAEVSKLVTDLTKVHTECCHGDLLECADDRADLAKYICENGDSISSKLKECCEKPLLEKSHCIAEVENDEMPADLPSLAADFVESKDVCKNYAEAKDVFLGMFLYEYARRHPDYSVVLLLRLAKTYETTLEKCCAAADPHECYAKVFDEFKPLVEEPGNLIKGNCELFEGLGEYKFGNALLVRYTKKVPGVSTPTLVEVSRNLGKVGSKCCKHPEAKRMPCAEDYLSVVLNGLCVLHEKTPVSDRVTKCCTESLVNRRPCFSALEVDETYVPKEFNAETFTFHADICTLSEKERGIKKGTALVELVKHKPKATKEGLKAVMDDFAAFVEKCCKADDKETCFAEEGKKLVAASGAALGL
modifications: rLZ-8-HSA sequence

How the values were obtained:
leukocytes = test: treatment of rat models with leucopenia caused by cyclophosphamide, leukocyte count; format: in vivo; settings: for leukocyte number before: baseline after CP modeling, before treatment
From the text: Utilizing Wistar rats in the experiments, wherein 18 rats weighing about 100 g are utilized. […] The experiment has an rLZ-8 low-dosage group, an rLZ-8 middle-dosage group, an rLZ-8 high-dosage group, an rLZ-8-HSA low-dosage group, an rLZ-8-HSA middle-dosage group, an rLZ-8-HSA high-dosage group, and a positive medicine control group (utilizing the […]®). […] On the third day, the blood is sampled from the tail vein, and the leukocytes are counted by a cytoanalyzer. After successful modeling, the rats of each the group are respectively treated with the rLZ-8, the three kinds of the fusion proteins, or the positive medicine (the […]®) with the corresponding dosage, and the equal sterile saline is given to the rats of the normal control and a CP group. The blood is sampled from the tail vein on the first, third and seventh treatment days, and the leukocytes are counted by the cytoanalyzer. Medicine efficacy is analyzed according to a number difference of the leukocyte between before and after the treatment.

[1] = tested on: mouse S180 Ehrlich ascites tumor; test: in vitro inhibition effect on mouse S180 Ehrlich ascites tumor, WST-1 method; format: cell-based; settings: 24 h, x ± s, n = 9
Experimental: In vitro experiment: testing the inhibition effect of the fusion protein rLZ-8-HSA on the mouse 5180 Ehrlich ascites tumor through the WST-1 method, preparing tissue suspension of the mouse S180 Ehrlich ascites tumor; adding 100 μl the tissue suspension into 900 μl 2% glacial acetic acid and counting with a microscope; adjusting a tissue concentration to 2×10^5/ml with DMEM comprising 2% calf serum; respectively preparing the fusion protein rLZ-8-HSA and the rLZ-8 with same molar concentration gradient, wherein there are 3 gradient concentrations, each concentration occupies 9 wells with 100 μl per well; adding tissue suspension with a concentration of 2×10^5/ml with 100 μl per well; shaking for evenly mixing, and then putting into a 37° C., 5% CO2 incubation device to incubate for 24 h; after incubation, adding WST-1 with 20 μl per well; putting into the 37° C., 5% CO2 incubation device to incubate for 3 h, then testing OD450 (with a BIO-RAD); wherein results are listed in table 5.

[2] = high-dosage 60 μg/kg (LZ-8 dosage)
[3] = low-dosage 15 μg/kg (LZ-8 dosage)
[4] = middle-dosage 30 μg/kg (LZ-8 dosage)

Molecule | leukocyte number on the first treatment day (leukocytes; [2]) | leukocyte number on the seventh treatment day (leukocytes; [2]) | leukocyte number on the third treatment day (leukocytes; [2]) | leukocyte number before (leukocytes; [2]) | leukocyte number on the first treatment day (leukocytes; [3]) | leukocyte number on the seventh treatment day (leukocytes; [3]) | leukocyte number on the third treatment day (leukocytes; [3]) | leukocyte number before (leukocytes; [3]) | leukocyte number on the first treatment day (leukocytes; [4]) | leukocyte number on the seventh treatment day (leukocytes; [4]) | leukocyte number on the third treatment day (leukocytes; [4]) | leukocyte number before (leukocytes; [4]) | OD450, inhibition effect on mouse S180 Ehrlich ascites tumor ([1]; protein 5.0 × 10^−9 mol/L) | OD450, inhibition effect on mouse S180 Ehrlich ascites tumor ([1]; protein 10.0 × 10^−9 mol/L) | OD450, inhibition effect on mouse S180 Ehrlich ascites tumor ([1]; protein 15.0 × 10^−9 mol/L) | leukocyte number relative to the rLZ-8 groups with the same dosage (leukocytes; first treatment day)
B1 | 5.4e+09 L⁻¹ | 1.45e+10 L⁻¹ | 9.6e+09 L⁻¹ | 4.09e+09 L⁻¹ | 4.6e+09 L⁻¹ | 1.12e+10 L⁻¹ | 9.3e+09 L⁻¹ | 3.71e+09 L⁻¹ | 5.1e+09 L⁻¹ | 1.278e+10 L⁻¹ | 9.7e+09 L⁻¹ | 3.12e+09 L⁻¹ | 0.453 ± 0.23 | 0.366 ± 0.31 | 0.345 ± 0.27 | –
B2 | 8.4e+09 L⁻¹ | 1.55e+10 L⁻¹ | 1.44e+10 L⁻¹ | 3.33e+09 L⁻¹ | 8.5e+09 L⁻¹ | 1.32e+10 L⁻¹ | 1.08e+10 L⁻¹ | 3.11e+09 L⁻¹ | 9.2e+09 L⁻¹ | 1.34e+10 L⁻¹ | 1.198e+10 L⁻¹ | 2.89e+09 L⁻¹ | 0.408 ± 0.21 | 0.233 ± 0.18 | 0.127 ± 0.15 | about 2 times
